This passage reports Average fluorescence intensity, Max MFI and OD450 results from patent US20240101686A1.

Test [1] deals with human EGFR on cells (human) (UniProt P00533).
Test [2] has the same target. The source holds these as a separate data set.
Test [3] has as its target human EGFRvIII on cells (human) (UniProt P00533).
The target is the same in test [4]. Nature of the test: FACS on CHO-K1-EGFRvIII 2G3 cells.
The target in test [5] is human EGFR on cells (human) (UniProt P00533). This is another data set of the same source.
For test [6] the target is unchanged. This is another data set of the same source.
Test [7] shares this target. The source holds these as a separate data set.
The target of test [8] is Her2 protein (human) (UniProt P04626).
Test [9] has as its target human EGFR-His-tagged fusion protein (human) (UniProt P00533).
The target is the same in test [10]. This is another data set of the same source.
Test [11] has the same target. This is another data set of the same source.
Test [12] has as its target human EGFR endogenously expressed on A431 cells (human) (UniProt P00533).
In test [13] the target is cynomolgus monkey EGFR on HEK293T-monkey EGFR cells (cynomolgus monkey). Nature of the test: FACS, HEK293T-monkey EGFR cells.
Test [14] has as its target murine EGFR protein (murine) (UniProt Q01279).
Test [15] addresses monkey EGFR protein (commercial, SB, catalog number 90285-C08H) (monkey). Nature of the test: ELISA, coated monkey EGFR protein, antibody 1 nM. (In an ELISA, binding on a coated surface is turned into a signal by an enzyme label.)
The target of test [16] is murine EGFR protein (murine) (UniProt Q01279). This is another data set of the same source.
In test [17] the target is monkey EGFR protein (commercial, SB, catalog number 90285-C08H) (monkey). Nature of the test: ELISA, coated monkey EGFR protein, antibody 10 nM.
Test [18] addresses murine EGFR protein (murine) (UniProt Q01279). This is another data set of the same source.
The target is the same in test [19]. This is another data set of the same source.
For test [20], the target named is monkey EGFR protein (commercial, SB, catalog number 90285-C08H) (monkey). Nature of the test: ELISA, coated monkey EGFR protein, antibody 0.1 nM.
The target is the same in test [21]. Nature of the test: ELISA, coated monkey EGFR protein, antibody 100 nM.
In test [22] the target is human EGFRvIII-His tag protein (extracellular domain Leu25-Ser378) (human) (UniProt P00533).
Test [23] has as its target murine EGFR protein (murine) (UniProt Q01279). This is another data set of the same source.
Test [24] deals with monkey EGFR protein (commercial, SB, catalog number 90285-C08H) (monkey). Nature of the test: ELISA, coated monkey EGFR protein, antibody 0.01 nM.
The target of test [25] is cynomolgus monkey EGFR on HEK293T-monkey EGFR cells (cynomolgus monkey). Nature of the test: FACS, HEK293T-monkey EGFR cells (specificity assay). On the technique in general: Flow cytometry measures light scatter and fluorescence of single cells or particles in a stream.
In test [26] the target is human EGFRvIII-His tag protein (extracellular domain Leu25-Ser378) (human) (UniProt P00533). This is another data set of the same source.
For test [27], the target named is murine EGFR protein (murine) (UniProt Q01279). This is another data set of the same source.
Test [28] addresses monkey EGFR protein (commercial, SB, catalog number 90285-C08H) (monkey). Nature of the test: ELISA, coated monkey EGFR protein, antibody 0.001 nM.
In test [29] the target is human EGFRvIII-His tag protein (extracellular domain Leu25-Ser378) (human) (UniProt P00533). The source holds these as a separate data set.
The target is the same in test [30]. This is another data set of the same source.
Test [31] addresses murine EGFR protein (murine) (UniProt Q01279). The source holds these as a separate data set.
The target of test [32] is monkey EGFR protein (commercial, SB, catalog number 90285-C08H) (monkey). Nature of the test: ELISA, coated monkey EGFR protein, antibody 0.0001 nM.
Test [33] has as its target human EGFRvIII-His tag protein (extracellular domain Leu25-Ser378) (human) (UniProt P00533). The source holds these as a separate data set.
Test [34] shares this target. This is another data set of the same source.
The target is the same in test [35]. The source holds these as a separate data set.
Test [36] deals with murine EGFR protein (murine) (UniProt Q01279). The source holds these as a separate data set.
The target in test [37] is monkey EGFR protein (commercial, SB, catalog number 90285-C08H) (monkey). Nature of the test: ELISA, coated monkey EGFR protein, antibody 0 nM (blank).
Test [38] concerns the target human EGFRvIII-His tag protein (extracellular domain Leu25-Ser378) (human) (UniProt P00533). This is another data set of the same source.

Like-named read-outs stand apart in the source and are kept apart here.

On to anti-hel-hIgG1 (antibody), for which the Average fluorescence intensity in test [1] worked out at 74; in test [3] it was 35.4; in test [4], 35.4; in test [5], 1560; in test [6] it was 1560; in test [7], 1560. In test [2], this substance registered a Max MFI of 159. Further, the OD450 in test [8] is 0.21; in [9] it was 0.71; in [10], 0.05; in test [11], 0.07.
As for “anti-hel-hIgG1 (negative control antibody against hen egg lysozyme)”, the Max MFI in [12] amounted to 199; in [13], 240; in test [25], 141. For the same substance, the OD450 came out at 0.12 in [14]; 0.21 in test [15]; 0.06 in test [16]; 0.13 in [17]; 0.06 in test [18]; 1.16 in test [19]. In addition, the OD450 is 0.09 in test [20]; 0.71 in test [21]; 0.22 in [22]; 0.06 in [23]; 0.19 in [24]; 0.13 in [26]. Further, the OD450 in [27] came to 0.05; in [28], 0.09; in test [29], 0.09; in test [30], 0.6; in [31] it was 0.05; in [32], 0.06. The OD450 in [33] is 0.19; in test [34] it was 0.08; in [35] it was 0.07; in test [36], 0.06; in test [37] it was 0.07; in test [38] it was 0.07.
